Where a chain is given by its changes, count along the chain named.

To fix the notation:
T1: mouse NBL1 (mouse, UniProt Q61477 17-178, limits assumed)
T1 sequence (looked up): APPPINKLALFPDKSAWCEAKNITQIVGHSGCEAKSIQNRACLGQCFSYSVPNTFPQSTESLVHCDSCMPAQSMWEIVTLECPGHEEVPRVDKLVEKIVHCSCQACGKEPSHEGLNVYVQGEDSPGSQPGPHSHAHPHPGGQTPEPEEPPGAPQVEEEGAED

T2: human NBL1 (neuroblastoma suppressor of tumorigenicity 1) (human, UniProt P41271 17-181, limits assumed)
T2 construct: Recombinant human NBL1; also called DAN; DAND1
T2 sequence (looked up): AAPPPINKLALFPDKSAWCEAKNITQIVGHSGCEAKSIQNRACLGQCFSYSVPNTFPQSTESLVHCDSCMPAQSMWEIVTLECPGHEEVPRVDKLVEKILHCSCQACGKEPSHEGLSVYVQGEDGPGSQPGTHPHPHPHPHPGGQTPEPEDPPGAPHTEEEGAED

B1: Antibody YU1018-D08 (antibody, V domains shown)
VH: QVQLVQSGAEVKKPGSSVKVSCKASGGTFSSYAISWVRQAPGQGLEWMGGIIPIFGTANYAQKFQGRVTITADKSTSTAYMELSSLRSEDTAVYYCARDRYYDSSGYYLMDPWGQGTLVTVSS
VL: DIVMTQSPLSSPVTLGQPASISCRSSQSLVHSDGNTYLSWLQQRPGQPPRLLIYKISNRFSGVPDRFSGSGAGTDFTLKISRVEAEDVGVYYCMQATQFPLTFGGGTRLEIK
B2: Antibody YU1018-E01 (antibody, V domains shown)
VH: QVQLVQSGAEVKKPGASVKVSCKASGYTFTSYGISWVRQAPGRGLEWMGWISAYNGNTNYAQKLQGRVTMTTDTSTSTAYMELRSLRSDDTAVYYCARGPRDGYNDYWGQGTLVTVSS
VL: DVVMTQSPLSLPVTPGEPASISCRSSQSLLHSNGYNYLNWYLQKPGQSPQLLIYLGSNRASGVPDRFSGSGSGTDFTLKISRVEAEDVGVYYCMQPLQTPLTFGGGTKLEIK
B3: Antibody YU1018-E04 (antibody, V domains shown)
VH: QVQLVQSGAEVKKPGESLKISCKGSGYSFTSYWIGWVRQMPGKGLEWMGIIYPGDSDTRYSPSFQGQVTISADKSISTAYLQWSSLKASDTAMYYCARAIVGATSGYWFDPWGQGTLVTVSS
VL: not shown
B4: Antibody YU1019-B06 (antibody, V domains shown)
VH: EVQLLESGGGVVQPGRSLRLSCAASGFTFSSYAMHWVRQAPGKGLEWVAVISYDGSNKYYADSVKGRFTISRDNSKNTLYLQMNSLRAEDTAVYYCASPVLRYFDWLPNYWGQGTLVTVSS
VL: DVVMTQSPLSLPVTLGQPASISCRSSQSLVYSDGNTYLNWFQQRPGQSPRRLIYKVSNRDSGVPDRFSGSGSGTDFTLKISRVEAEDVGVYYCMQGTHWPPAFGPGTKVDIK
B5: Antibody YU1018-E07 (antibody, V domains shown)
VH: B4 VH with L116T
VL: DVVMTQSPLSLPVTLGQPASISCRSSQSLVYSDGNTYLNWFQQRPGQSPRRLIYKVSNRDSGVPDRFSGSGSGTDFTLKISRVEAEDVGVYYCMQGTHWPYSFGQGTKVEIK
B6: Antibody YU1018-G01 (antibody, V domains shown)
VH: QVQLVQSGAEVKKPGASVKVSCKASGYTFTSYAMHWVRQAPGQRLEWMGWINAGNGNTKYSQKFQGRVTITRDTSASTAYMELSSLRSEDTAVYYCARGRELLTFDYWGQGTLVTVSS
VL: not shown
B7: Antibody YU1019-A12 (antibody, V domains shown)
VH: EVQLLESGPGLVKPSQTLSLTCTVSGGSISSGDYYWSWIRQPPGKGLEWIGYIYYSGSTYYNPSLKSRVTISVDTSKNQFSLKLSSVTAADTAVYYCARGRRLLLFHWGQGTTVTVSS
VL: QSVLTQPPSVSAAPGQKVTISCSGSGSSIGNNYVSWYQQVPGTPPKLLIYDNNKRASGIPDRFSGSKSGTSATLGITGLQTGDEADYYCGTWDNSLSAVVFGGGTKLTVL
B8: Antibody YU1018-D06 (antibody, V domains shown)
VH: QVQLVESGPGLVKPSQTLSLTCTVSGGSISSGGYYWSWIRQHPGKGLEWIGYIYYSGSTYYNPSLKSRVTISVDTSKNQFSLKLSSVTAADTAVYYCARSGAAGIPWFDPWGQGTLVTVSS
VL: B7 VL with G26S, S28N, V40L, P44A, D51E, K54E, A56P, F63L, G75A, N94S
B9: Antibody YU1018-D12 (antibody, V domains shown)
VH: EVQLVQSGAEVKKPGASVKVSCKASGYTFTSYGISWVRQAPGQGLEWMGWISAYNGNTNYAQKLQGRVTMTTDTSTSTAYMELRSLRSDDTAVYYCARDVGYSYGIFDYWGQGTLVTVSS
VL: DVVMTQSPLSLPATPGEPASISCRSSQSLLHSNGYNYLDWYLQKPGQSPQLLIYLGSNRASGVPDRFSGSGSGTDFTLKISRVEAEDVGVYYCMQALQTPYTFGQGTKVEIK

The target in the first test is T1, mouse NBL1. Nature of the test: ELISA, IgG1 format.
Procedure: (§1) Naïve human phage display libraries were panned to discover Fabs capable of binding human NBL1 (UniProt ID P41271), and further screened for potential inter species cross reactivity to mouse NBL1 (UniProt ID Q61477) and/or cynomolgus (“cyno”) NBL1 (UniProt ID A0A2K5WIY3). […] Antigen binding of the IgG1 formatted antibodies was tested by ELISA and EC50 values were calculated.
Turning to B1, the binding result was “binds”.

With B2, the binding result was “binds”.

For the molecule B3, the binding result is “binds”.

For the molecule B4, the binding result is reported as “binds”.

In the case of B5, the binding result is “binds”.

As for B6, the binding result is “binds”.

For B7, the binding result is on record as “binds”.

Consider B8, for which the binding result was “binds”.

On to B9, for which the binding result is listed as “binds”.

A further test addresses T2, human NBL1 (neuroblastoma suppressor of …). Briefly: ELISA, IgG1 format.
Procedure: as §1
For B1, the binding result is “binds”.

Turning to B2, the binding result was “binds”.

As for B3, the binding result was “binds”.

In the case of B4, the binding result is listed as “binds”.

As for B5, the binding result is recorded as “binds”.

For the molecule B6, the binding result is “binds”.

B7: the binding result is “binds”.

Turning to B8, the binding result is reported as “binds”.

Regarding B9, the binding result is recorded as “binds”.

Values taken from US20260265357A1 (NEPHRIS, published 2026).
